{"source": "the DeepSol protein solubility set"}
{"experiment": "soluble on expression in E. coli; label from the status in PepcDB or PDB records"}
{"sequence": "MSLEMEKYLSVTTLTKYLKMKFDKDPYLERVYLTGQVSNFRKRPTHQYFSLKDDHAVIQATIWSGIYQKLGFDLEEGMKINVIGRVQVYEPSGSYSIIIEKVEPDGVGALAIQFEQLKKKLTEEGLFQERFKQALPQFSKRIGVVTSRSGAVIRDIITTVSRRFPGVDILLYPTKVQGEGAAEEIARNIARANQRDDLDLLIIGRGGGSIEDLWAFNEEIVVRAIFESRLPVISSVGHETDVTLADFVADRRAATPTAAAELATPVTKLDVLAHLQNQEKRMVTAVRNVLSKKQEALKKCSQSVIFRQPERLYDGYLQRLDQLQLRLKQSLRTRISDNKQLVQARTHQLVQLSPVTKIQRYQDRLGQLDKLLGSQMALVYDAKVAEAKRLSEALLMLDTSRIVARGYAIVKKEESVVDSVESLKKKDQVTLLMRDGQVELEVKDVKTKEIEGHHHHHH", "soluble on expression in E. coli": "not soluble"}
{"sequence": "MGSDKIHHHHHHMNLYQTKLFTTLQKEYKNKYGVDISQFVKLTNSSINFDKFEEEQLTLKQKNVIKSIKKNNEKKIILSGGIASGKTYLACYLFLKSLIEIKKLYSSDTNNFIIGNSQRSVEVNVLGQFEKLCKLLKIPYIPRHTNNSYILIDSLRINLYGGDKASDFERFRGSNSALIFVNEATTLHKQTLEEVLKRLRCGQETIIFDTNPDHPEHYFKTDYIDNIATFKTYKFTTYDNVLLSKGFVETQEKLYKDIPSYKARVLLGEWIASTDSIFTQINITDDYVFTSPIAYLDPAFSVGGDNTALCVMERVDDKYYAFVFQDQRPANDPYIMNMVKTVIENFNVHTLYLEDRDNTKGAGGLTREYILLRSNISQYFRIVPVKPKSNKFSRITTLITPFTYKKLYITKYSSSSVFNDIYSYKGDNKTHDDALDAISAAYLMLSLGYRERSVHFGNQRFL", "soluble on expression in E. coli": "not soluble"}
{"sequence": "MGSDKIHHHHHHMIVETMTMVEFEEGLKRTRTVFVPFGSVEEHGCHLPLSTDTIQAYEVGKKAALQISLFVAPPIHYGSCRSTSCHPGTISITTATLKCLMKDIVRSLYAQGMRNFIILTGHAGGSHRMALQDAGEELLPEIPDIRIAVVTEYELASREGKGIIETEGDAHAGEIETSRILHTHPHLVQGRGEREFPSFPTGILVRNKRKYWPNGVWGDPAKATAEKGKRLEELVVKKIVELAAALEQFQE", "soluble on expression in E. coli": "not soluble"}
{"sequence": "MRVFPVTLGPLQENAYLVETGEGPVLIDPGDEPEKLLALFQTTGLIPLAILLTHAHFDHVGAVAPLVEALDLPVYLHPLDLPLYEGADLAARAWGLAIPKPPLPVRPLEEGMRLFGFQVLHLPGHSPGHVAFYDPEGAQVFSGDLLFRGSVGRYDLPGADPKALFASLKRLLSLPPETRVHPGHGPGTTLGLEARTNPFLTGLEWEA", "soluble on expression in E. coli": "soluble"}
{"sequence": "MSKLELLPAVDVRDGQAVRLVHGESGTETSYGSPLEAALAWQRSGAEWLHLVDLDAAFGTGDNRALIAEVAQAMDIKVELSGGIRDDDTLAAALATGCTRVNLGTAALETPEWVAKVIAEHGDKIAVGLDVRGTTLRGRGWTRDGGDLYETLDRLNKEGCARYVVTDIAKDGTLQGPNLELLKNVCAATDRPVVASGGVSSLDDLRAIAGLVPAGVEGAIVGKALYAKAFTLEEALEATSLEPG", "soluble on expression in E. coli": "soluble"}
{"sequence": "TTVNETTPIAPAKVLPDAQTVTSVRHWTDTLFSFRVTRPQTLRFRSGEFVMIGLLDDNGKPIMRAYSIASPAWDEELEFYSIKVPDGPLTSRLQHIKVGEQIILRPKPVGTLVIDALLPGKRLWFLATGTGIAPFASLMREPEAYEKFDEVIMMHACRTVAELEYGRQLVEALQEDPLIGELVEGKLKYYPTTTREEFHHMGRITDNLASGKVFEDLGIAPMNPETDRAMVCGSLAFNVDVMKVLESYGLREGANSEPREFVVEKAFVGEGI", "soluble on expression in E. coli": "soluble"}
{"sequence": "MSRRHSVVDAYSTVEGKIRDTMRELSALWDEVDMSEAMRLKRVDNAFTHITLLCDDMLSGEKEMIHNLKVSIREDMQNVKKMRLELEMEDFQRPAEIKDGSIALMRHLQSEVKSLETEFQTRHEDQRVLIEKICNLKKRLESDFEFEYEIHAKLNFDTDLPPCMSPATSEMISFITPTRRQAVGPKTSSPKDTQPSTSSSSRTTTPMSKRAMTPSSIASSTPSSAKKVLTRRNQFL", "soluble on expression in E. coli": "not soluble"}
{"sequence": "MSKRNTQLRRHAISNMVNELGEVSVDELAQKFETSEVTIRKDLASLEKNGQLLRRYGGAIAIPTEVIHEELSSNVSTRKLSLAKAAASLIRDHNRIVIDSGSTTAALIQQLNDKRGLVVMTNSLHVANALNELESEPTLLMTGGTWDTHSESFQGKVAESVLRAYDFDQLFIGADGIDLERGTTTFNELVGLSKVMAEVSREVIVMIESEKIGRKIPNLELAWHQIDVLVTDADIQPEHKVQIEQHGVKVICALEHHHHHH", "soluble on expression in E. coli": "soluble"}
{"sequence": "MQFNPGFSSLAALLADPGRAQMIWALMDGSARPASELALLAGVSPSSASGHLGRLVEGGVLSLEARGRNRFYRLAGPEVGQAVEALASASLALQPQRRSLPPSHGTPSALREARTCYDHLAGELAVGVFARMLDAGWIEQEGRTLRLSATGEAGLAGLGIDLAEVRRRRRQFACACPDWSERKPHLGGALGAALLEACLRQGWLRPQDGSRALQVSSKGRAGLRGLAERTAG", "soluble on expression in E. coli": "not soluble"}
{"sequence": "MHHHHHHSSGVDLGTENLYFQSMVEDHYEMGEELGSGQFAIVRKCRQKGTGKEYAAKFIKKRRLSSSRRGVSREEIEREVNILREIRHPNIITLHDIFENKTDVVLILELVSGGELFDFLAEKESLTEDEATQFLKQILDGVHYLHSKRIAHFDLKPENIMLLDKNVPNPRIKLIDFGIAHKIEAGNEFKNIFGTPEFVAPEIVNYEPLGLEADMWSIGVITYILLSGASPFLGETKQETLTNISAVNYDFDEEYFSNTSELAKDFIRRLLVKDPKRRMTIAQSLEHSWIKAIRRRNVRGEDSG", "soluble on expression in E. coli": "soluble"}
{"sequence": "MGSDKIHHHHHHMPANPLPDDDLADSDTDDTGSGEHGEGGEKVRSGIQSIEVGFRLLEVLTSEPRAMMLRDLAQRAGMSPAKAHRYLVSFSRLGVVSQDPVSGRYELGGFALQMGLARLARVDGVKLARIALTELRDRVDQTVGIAVWGNQGPTIVHWMESSHPAKASLKLGDVMPLLGSATGLLFAAYLPRSKTAAMLERELADTRRSPHHGGPRTLEEVDAVLADVRAHQAARVEGMLLPTIHAFCMPVFDAVGELALAIVALGQEGTFDIAWGGEMDTALRACAQKLSYELGYSPDARDA", "soluble on expression in E. coli": "not soluble"}
{"sequence": "MVEMTRIKHVAFLNPQGNFDPADSYWTEHPDFGGQLVYVKEVSLALAEMGVQVDIITRRIKDENWPEFSGEIDYYQETNKVRIVRIPFGGDKFLPKEELWPYLHEYVNKIINFYREEGKFPQVVTTHYGDGGLAGVLLKNIKGLPFTFTGHSLGAQKMEKLNVNTSNFKEMDERFKFHRRIIAERLTMSYADKIIVSTSQERFGQYSHDLYRGAVNVEDDDKFSVIPPGVNTRVFDGEYGDKIKAKITKYLERDLGSERMELPAIIASSRLDQKKNHYGLVEAYVQNKELQDKANLVLTLRGIENPFEDYSRAGQEEKEILGKIIELIDNNDCRGKVSMFPLNSQQELAGCYAYLASKGSVFALTSFYEPFGLAPVEAMASGLPAVVTRNGGPAEILDGGKYGVLVDPEDPEDIARGLLKAFESEETWSAYQEKGKQRVEERYTWQETARGYLEVIQEIADRKDEEDEGGSLNIPDYFTNPGASNDEKLLDTFNKLWKE", "soluble on expression in E. coli": "soluble"}
{"sequence": "MGSDKIHHHHHHMAVVDEAKLRYLDFLSREDRVRHHRYVEEMKQYDMMRSGDINAIAESTRLWNSGLYGYLSDDPLKNAKYRFVTTITLATRFAIEGGMDEEDAYNASDLYIQNLENCKTPDDVRRLHTDMMTFFTWAMADMQKAETHSKAVNECLDYIHYHLHEKITVPILAEHVHLNPTYLSELFKRETGTAISQYITDKRMEAAENMLKYSEYSFDEIAQILAYRSQSHFSKVFKKHSGMTPGEYRTKYAQNGIWPE", "soluble on expression in E. coli": "not soluble"}
{"sequence": "MLMSLAQCPGFLFAHREECTVEIKKIINPRYTESGAVDCDVFFDDRDQAVPYTATADDVAPTGQQIWQELQSGKWGEIAPFTVTPEMLEAAREARRQEIEAWRTEQEAKPFTFEWNGRTWNADASSVARLSPVVMLAKSVAAQTHMVWSDADNQQVKLSMPELEELAAAMVQAQVDRNDEIYRRQREMKEELSSLDDLASIRAFDVK", "soluble on expression in E. coli": "not soluble"}
{"sequence": "MAHHHHHHMGDDCETELVEVFGFISSGREDVRKMAVQGLAQQSKDNKELFALIASSAHGPRCIDVLLQFLHAGSVALLGDVLTVLINCAADGTCTEVLVTQKVVRRAMRLIDSVEASDHPQSLQRGLEEMTLMLLSNLTASHVSAVDDLLQVTDEDLRGFYLGKLLTYYTRFTVDDGCSVEVAVAGEQQQEDGGDDNKKLSEGDAVRSNSGGNKSEELNKTVPRDLQRWILQILLNVTRVADGQELLLEDDDWLMALSDCLSSLNPRHRLLAAQCFRNCSFQRERHPGILRSRCLRVCVERLSDGAEHIGEIEMLLAEITANLMQTEAGIGLLEELNAKKHLQASVTAGKVQADTCKFLNEHVLPLLDDIVDAYVMTSGDELD", "soluble on expression in E. coli": "not soluble"}
{"sequence": "MTLAEAADAINFGLAGRVVLVTGGVRGVGAGISSVFAEQGATVITCARRAVDGQPYEFHRCDIRDEDSVKRLVGEIGERHGRLDMLVNNAGGSPYALAAEATHNFHRKIVELNVLAPLLVSQHANVLMQAQPNGGSIVNICSVSGRRPTPGTAAYGAAKAGLENLTTTLAVEWAPKVRVNAVVVGMVETERSELFYGDAESIARVAATVPLGRLARPADIGWAAAFLASDAASYISGATLEVHGGGEPPPYLGASSANK", "soluble on expression in E. coli": "soluble"}
{"sequence": "MTIRINNISLDINEDLSLLKNKVAKKLRMSKDEIGDIKIIKESLDARKKNLIKFNYCINIEHEDEEKIVARLNDKDVKIDKVNYDFDFNFGEKKLQHRPVVIGLGPAGLFAALLLAKKGFNPIVFERGEDVDSRTKTVEEFWRTGELNPESNVQFGEGGAGAFSDGKLTTRIKDTRCDYVLDALVRNGAPEEIIYKGKPHVGTDILKNVVKNIREEIKRHGGEVHFNSRFEGIIKKDNKLKGIKVNGEEVPCEVAILALGHSSRDTYEMLFNEGVFMKQKPFAIGVRIEHPQEIINLSQYGEKYANHPRLKAAEYRLAYQSKTLDRAVYSFCMCPGGVVVNASSEEKRLCVNGMSYHARDKENANSALVVTVGPNDFGGDHPLEGMKFQRHYEELAFKLGGGNYNTPVQLVGDFMKDRVTTKLGKVNPSVLSNGYRFEDLRKCLPSYVIDGLKEGITDFDRKIKGFGHSDSVLTGIETRTSAPVRIERNEKLQSISLEGLYPAGEGAGFAGGIVSAAVDGLKVAENIMKEYRVLEHHHHHH", "soluble on expression in E. coli": "not soluble"}
{"sequence": "MSLTPVLDKIDSDVSAATDRLLELLRIPSISTDPAYKADCDAAADWLVKDLNSIGIKAEKRETPGHPMVVGHVGEENTKGPHLLFYGHYDVQPVDPLNLWNTPPFEPQLEETPNGTVIRGRGASDDKGQLMTFVEACRAWQAVHGTLPCRITFFFEGEEESGSPSLIPFLEAAKEELSADIALICDTSMVARGVPSVASQLRGMMKDEFTLIGPKIDLHSGHYGGPGLNPLREISHIIASFHDPDTGAVAVEGFYEGVPEVPADILRQWEGCGFDEKDYLSNAGYTEAHGEKKYSTLEQQWARPTLEINGLWGGYQGAGTKTVIPSEAHCKITCRLVGDMDPADLRQKIRKHVEDRLPTDCTVKWDLDLDGAPAYVIDTTRPEFEAARGALTEEWNREAVFSGMGGSIPVAGYFKSILGMDAMLIGFANEDDAIHSPNEKYDLESFHKGIRSWARVLDALSKA", "soluble on expression in E. coli": "soluble"}
{"sequence": "MSLIYLRKANERGHANHGWLDSWHTFSFANYYDPNFMGFSALRVINDDVIEAGQGFGTHPHKDMEILTYVLEGTVEHQDSMGNKEQVPAGEFQIMSAGTGIRHSEYNPSSTERLHLYQIWIMPEENGITPRYEQRRFDAVQGKQLVLSPDARDGSLKVHQDMELYRWALLKDEQSVHQIAAERRVWIQVVKGNVTINGVKASTSDGLAIWDEQAISIHADSDSEVLLFDLPPVEGGSHHHHHH", "soluble on expression in E. coli": "soluble"}
